Experimental findings from the DeepSol protein solubility set are described below.

This data set in a line: soluble on expression in E. coli; label from the status in PepcDB or PDB records.
As to “MSLVEQLVKELSKGLNTRDYPEGFFKEHLAFRLKINKLEPVKHPHIPDINSLLGVEKQKEVLLRNTAQFVKGLPANDVLLWGARGTGKSSLVKALLGVFGKEGLRIVQVTKHEIPELADLYEVLRDKEEKFILFFDDLTFEPHEDAFRLLKSIMEGDVEERPQNVLFTQLQTGDTSLRIWKKRINFRRKHSTKSFL”, the “soluble on expression in E. coli” value is “not soluble”.

Take “MHKEKHCAVVIDCWMEKIGEVNFENKPSKFPAFVEEIRKICGTKDFVFGLEDTRGFGRNLASYLTGRKFEVKHVNPVYTSAIRLSNPIIYKDDSYDAYCVARVLRDMVDTLQDAKHEDIYWAIRQLVKRREIIVKYNVMNKNQLHSQLSYGYPSYKKFFSQIDGKSALCFWENYPSPEHIWCTTPEQIYETIKAVHQAFKIERVHAIIDMIKKDGNTQKGYQEERDTIVRNIVKDIKNNQELLKDIEKQLRKLLPQTGYKLQTMPGIDLITEAKIVSEIGDINRFPNSDKLARFMGLAPVHFSSAGKGKEERCRNGNRELNAIFHFLAIQMVAVSPSGKPRHPVFREYFEQKVKEGKNKPQALICISRTLVRLIYGMMKTKTEYRPYEKKEEEGNN”: the “soluble on expression in E. coli” value is given as “soluble”.

Consider “MGSDKIHHHHHHVTEAQTDPKYYDVVEATWPCLRCEKLGDITLRVGAGGGSRVSAATCDALVSDAQIAQAEAAMQDFDQPRLFMIRDGQDALDGQLERLGYAVMDPVALWTVAPSMLTDVEIPRVTTFCLWEPLAIQREIWATGGIGPERLAIMERATRPKTSILGRWDDKPAGAAFVGMHEGIAMLHALEILPHQRRKGMGVWMMRQAAYWAAEQGATELAVLCTRANAGANALYARLGMQQAGGYHYRIKR”, for which the “soluble on expression in E. coli” value is “not soluble”.

Take “MGSDKIHHHHHHENLYFQGMLNFTVGPVMSSEEVRAIGAEQVPYFRTTEFSSTMLENEKFMLEYAKAPEGSKAVFMTCSSTGSMEAVVMNCFTKKDKVLVIDGGSFGHRFVQLCEIHEIPYVALKLEHGKKLTKEKLYEYDNQNFTGLLVNVDETSTAVLYDTMMIGEFCKKNNMFFVCDCVSAFLADPFNMNECGADVMITGSQKVLACPPGISVIVLAPRGVERVEKSKVRTMYFDLKDALKNQERGQTPFTPAVGILLQINERLKEIKKHGGADAEVARIASQAADFRAKIKDLPFELVSESPANGVTSVHPTTANAYDIFLKLKDEYGIWICPNGGEMKDTIFRVGHIGALTHEDNTTLVNAFKDLQKRNLL”: the “soluble on expression in E. coli” value is “soluble”.

For “MRVLYERCCGLDVHKKSITACVLTPEGKEIRTFGTMTDDLEELVEWLKQKQVTHVAMESTGVYWKPIYNLLEAEPIDVLVVNAQHIKAVPGRKTDVKDAEWIADLLRHGLLRGSYIPDRAQRELRELVRYRRSLIEERARELNRIQKVLEGANIKLASVVSDINGVSAQQILRALIEGTDDPAVLAQLAKGRLKQKIGELRRALKGIMGPHQRMMLAEQCRHIEYLDEAIARLSREIEERTRPFHEVLELMETIPGVGRQSAEQIIAEIGTDMSRFPTAAHVASWAGMAPGNHESAGKRLSGRTRKGNKKLRACLVECARAAARTKNTYLSAKYHRIAKRRGANRASVAVGRTILEIIYSVLTRKAPYRELGADYWDQQREAAIVRQTVKRLEGLGYEVKLEKTSA”, the “soluble on expression in E. coli” value is “not soluble”.

Turning to “MGSDKIHHHHHHMTMDAATAVSDQGKQDLPAGDGATLSLKDRIARDLGQRILAGIYAQHAVLPTEAELCVIYGASRTALRDALLTLSAKGLIEARKRAGTRVRVSSEWNRLDAQVLEWMRDIEPDLDFVRGLIEARLVIEPAAAQLAAKMATSGDLAVIEAAYEAMRIAPEDDLAACLDADVRFHTAILRASRNPVFANLGNMLAAALSFSFRLTTSATANYQQTLSAHGDVLEAIRMRRVDDAHDQMKALIGIASNDLLAVARKGRHQQPVPTASADPI”, the “soluble on expression in E. coli” value was “not soluble”.

On to “MSLYIHQTACISAQPAFADPASDHVAAAVDNKLYAIDSNYDSIPPNVLRRLGKAVKMGIATGHSLISKHPVDGIVLGTANGGLEDCIKFLNQIIEFEEGRLTPTNFVQSTTNAIAGQLGIMSSNKGYNITHVHRGLAFENALIDIEMLLNEYPSNTYLLGGVDEISAYNYTIEKLAGTYKSETISSAQLFSSQTTGTIAGEGAAMFLVNTNRLNAAAAIKGIKTYNNPSPEAIKKHLEDFLAKHLPQNEKIDVLFSGKNGDVCLNSFYEVCAQQLGKETTVCYYKQLTGDFPTVTALALWFATRFIEDSNNLPVLNIKKTGAVKNILLYNTYKGYQHSFILVSEGHHHHHH”, for which the “soluble on expression in E. coli” value was “not soluble”.

With “DPDIQSTVEAMLLDRVDALPPKVSMAVLVMDNDSLEVKAYAGSADFTDDSRYAHVDMVRGVRSPGSTLKPFLYALALDEGLIHSESLLLDAPLSFGGYAPGNFQAAFAGPVSVAQALQRSLNVPAVDLLDRVGPARFASVMLAGGVHLRMPAGAVPNLSLILGGGGTTLEELVGAYRALARGGLSGRPRLRASQPRIEARLMSPGAAWIVRDILELGGHPDRPLFQGAAAGRQLAWKTGTSFGFRDAWAVGVTDRYTIGAWVGRPDGTPNPGFFGANVAAPLLQDIVAALPAGAPVPRT”, the “soluble on expression in E. coli” value is reported as “not soluble”.

Turning to “MAATSGTDEPVSGELVSVAHALSLPAESYGNDPDIEMAWAMRAMQHAEVYYKLISSVDPQFLKLTKVDDQIYSEFRKNFETLRIDVLDPEELKSESAKEKWRPFCLKFNGIVEDFNYGTLLRLDCSQGYTEENTIFAPRIQFFAIEIARNREGYNKAVYISVQDKEGEKGVNNGGEKRADSGEEENTKNGGEKGADSGEEKEEGINREDKTDKGGEKGKEADKEINKSGEKAM”, the “soluble on expression in E. coli” value is on record as “soluble”.

Regarding “MVAKDYPFYLTVKRANCSLEAPLGSGVAKDEEPSNKRVKPLSRVTSLANLIPPVKTTPLKRFSQTLQRSISFRSESRPDILAPRAWSRNATSSSTKRRDSKLWSETFDVCVNQVLTAKEIKRQEAIFELSQGEEDLIEDLKLAKKAYHDPMLKLSIMTEQELNQIFGTLDSLIPLHEELLSQLRDVRKPDGSTEHVGPILVGWLPCLSSYDSYCSNQVAAKALLDHKKQDHRVQDFLQRCLESPFSRKLDLWNFLDIPRSRLVKYPLLLREILRHTPNDNPDQQHLEEAINIIQGIVAEINTKTGESECRYYKERLLYLEEGQKDSLIDSSRVLCCHGELKNNRGVKLHVFLFQEVLVITRAVTHNEQLCYQLYRQPIPVKDLTLEDLQDGEVRLGGSLRGAFSNNERVKNFFRVSFKNGSQSQTHSLQANDTFNKQQWLNCIRQAKETVLSAAGQAGLLDSEGLVQGPGTENREPQGETKLEQMDQSDSESDCSMDTSEVSLECERMEQTDASCANSRPEESV”, the “soluble on expression in E. coli” value is listed as “soluble”.

“MGSDKIHHHHHHMSWHNKVVWNEGLFLLPQLFQQQERYFEYFAHKRAAVLSPFFWGFSRYEIDQESLSFGKLVFKSGAGIFPDGTPFDVPGHTPPPPPLTIAAEHQDQVIYLAVPLRLPNTEETAFDEQAGSLARYSAFEIELRDSNAIGQGPKPVQLANMRLRLLPEKELTQSWIGIALTRVKTLHADGSVALYDGDHIPPVSQYGANPLLREWATQLHGLAKLRADALATRLSGSDGRAGAAAEVADYLLLQVLNRYEPLLEHICRIREMPPVTLYRELSMLAGELSTFVRPQTRRPRPTPGYDHAQLYASIRPLVDEVHYLLNQVLIRGAQPIPLTEQPHGIRVATMLPSELAGYSSLVLAVGAQMSPDVLQQQFASQTKISHPQRLPELIRSHLPGMTMIPLPVPPRQIPFNSSYIYYELSRTGPFWEQIAQQGGLAMHIAGHFPELKLELWGVRHK”: the “soluble on expression in E. coli” value is “not soluble”.

With “MGHHHHHHSHSIKPSTNLVFAKVLEKTRHPNANHLNLVKVKANQKVYEIVCGANNFSVHNWVVLAKLNAELANGLKITPRELRGYVSNGMLCAYSEINPQATSFLTSTDLDGILVLDDNYDHYKTPNQIFNLDDVILDLSIPSNRNDLNGYFWIAKELCAYFDFEYVVDATINHRPHKEIIDVRI”, the “soluble on expression in E. coli” value was “not soluble”.

Consider “MISKRPDIYTQHDKAFSAVSAYVVLNSANERVATVALKFPCDGAGRLYAYVHWVGLEMVRGWAGGYGYDKRSAACASAARRIAIGNLTGDEWTNRRHEATAFVEALEKDSGEDWTRQLEAAGFKVFQAV”, for which the “soluble on expression in E. coli” value is “not soluble”.

Turning to “MEEELPLFSGDSGKPVQATLSSLKMLDVGKWPIFSLCSEEELQLIRQACVFGSAGNEVLYTTVNDEIFVLGTNCCGCLGLGDVQSTIEPRRLDSLNGKKIACLSYGSGPHIVLATTEGEVFTWGHNAYSQLGNGTTNHGLVPCHISTNLSNKQVIEVACGSYHSLVLTSDGEVFAWGYNNSGQVGSGSTVNQPIPRRVTGCLQNKVVVTIACGQMCCMAVVDTGEVYVWGYNGNGQLGLGNSGNQPTPCRVAALQGIRVQRVACGYAHTLVLTDEGQVYAWGANSYGQLGTGNKSNQSYPTPVTVEKDRIIEIAACHSTHTSAAKTQGGHVYMWGQCRGQSVILPHLTHFSCTDDVFACFATPAVTWRLLSVEPDDHLTVAESLKREFDNPDTADLKFLVDGKYIYAHKVLLKIRCEHFRSSLEDNEDDIVEMSEFSYPVYRAFLEYLYTDSISLSPEEAVGLLDLATFYRENRLKKLCQQTIKQGICEENAIALLSAAVKYDAQDLEEFCFRFCINHLTVVTQTSGFAEMDHDLLKNFISKASRVGAFKN”, the “soluble on expression in E. coli” value is recorded as “not soluble”.

“MAHHHHHHMASMNHPDELEGSATSGVLCPLTAYEEVPPTKTRSQIIKEQLLDLENYSFEIPDRPEGDPSGKLAYLDMCEQLHKESFMKFPTHSVANSLCEGKESLDVSFFALGKKGSAALAAALRVNLTIRKLSLLRNHITPSGAMEIARALSETKVVSDLDLSENLLGLTDADDIQGGAVVAEFLKPGNVLKTLSLRDNKLSDQHVTEFAEAAIDNTELHSLDLSFNRIGYIGAIELANILSKNADLQEINLEWNQFQTIGSRHILAEGLLLNNTIKRFNMSWNGLDDACGVLVGRIISENDIEEIVVAHNRIGPAGAEAIAKGLLNTSALTTLILDDNPMQNEGCAAILRVVGEAATLTNVSLQQCRCDSSVVLEADRVMKEVRPDLDIRISEGCCAKVVM”: the “soluble on expression in E. coli” value is “not soluble”.

“MEKKVQIAVYENENFKRVAEIVKKKSIATVCEEALCPNIMECWGSGTATFMIMGSICTRGCRFCYVLKGKPSPLDDEEPKRVAEAVKEMELDYVVITSVDRDDLSDGGAQHFANVVKTVKELNPGIIVEVLTPDFRGNIDAVKKVIDAGVDVFAHNVETVRRLTPIVRDPRASYEQSLNVLKYAENVIKKSSILLGLGETWDEIVETMRDLRSVGVSILVLSQYMRPSRKQLEVKKRYTLEEFKELEEIAYSMGFSAVISLPLARTSYKAKEAYFRAIENAKNHS”: the “soluble on expression in E. coli” value is given as “not soluble”.

On to “MIDLAKDHLKKVLSLCGANRDCEYYPCHYENQSCLWCYCPFYPCEDENLGEFVKRKDGSLIWSCMKCNWIHKPEIASEVLKEITELTKDKKINDSIEFIDNHEILMNIKRRVEEKLGKDNSV”, for which the “soluble on expression in E. coli” value is reported as “not soluble”.

“MDLQTSSKFLQNQLAHLFQCERDSADVENSEGCFSTGNDPAFKDERLRFEFHTEPFNRRYLLRVVKVPP”: the “soluble on expression in E. coli” value was “not soluble”.

In the case of “MIIPALDLIDGTVVRLHQGDYGKQRDYGNDPLPRLQDYAAQGAEVLHLVDLTGAKDPAKRQIPLIKTLVAGVNVPVQVGGGVRSEEDVAALLEAGVARVVVGSTAVKSQDMVKGWFERFGADALVLALDVRIDEQGNKQVAVSGWQENSGVSLEQLVETYLPVGLKHVLCTDISRDGTLAGSNVSLYEEVCARYPQVAFQSSGGIGDIDDVAALRGTGVRGVIVGRALLEGKFTVKEAIACWQNA”, the “soluble on expression in E. coli” value is on record as “soluble”.

Take “MGSDKIHHHHHHMKTEIVEIESECLKDNFLKDDWKRQILVYRPDDAEGGLPLFIELAGTNWRPRTHNKFSLIIEKLFSSGLKAVVLNPNFSTRYNMNQYLNSPAVGSYEDFIVKELIPYFKDKYGTDHTALFGKSSGGFGSYTLAARHPDIIDGFADHFGDSCFFYLYADDMAAAFRYIQRHGKSESVKMLTSHMPSDDEMKVLNVIGSSAFYSPDMNDVNGFDLPFDEDTGELIEDVWQRWVQFDPAKNVLKYSGALKKMKAIYLDVGTNDEYKLYIGTRALHKKLGLANIDHYYEEFNGGHFGNSERYLYSLPFLYRKLNDTA”: the “soluble on expression in E. coli” value is “not soluble”.
